How the values were obtained:
[1] = target: T1, CD22 receptor on the Daudi cell line (human, UniProt P20273 20-847); assay: cell-based or functional assay
T1 sequence (looked up): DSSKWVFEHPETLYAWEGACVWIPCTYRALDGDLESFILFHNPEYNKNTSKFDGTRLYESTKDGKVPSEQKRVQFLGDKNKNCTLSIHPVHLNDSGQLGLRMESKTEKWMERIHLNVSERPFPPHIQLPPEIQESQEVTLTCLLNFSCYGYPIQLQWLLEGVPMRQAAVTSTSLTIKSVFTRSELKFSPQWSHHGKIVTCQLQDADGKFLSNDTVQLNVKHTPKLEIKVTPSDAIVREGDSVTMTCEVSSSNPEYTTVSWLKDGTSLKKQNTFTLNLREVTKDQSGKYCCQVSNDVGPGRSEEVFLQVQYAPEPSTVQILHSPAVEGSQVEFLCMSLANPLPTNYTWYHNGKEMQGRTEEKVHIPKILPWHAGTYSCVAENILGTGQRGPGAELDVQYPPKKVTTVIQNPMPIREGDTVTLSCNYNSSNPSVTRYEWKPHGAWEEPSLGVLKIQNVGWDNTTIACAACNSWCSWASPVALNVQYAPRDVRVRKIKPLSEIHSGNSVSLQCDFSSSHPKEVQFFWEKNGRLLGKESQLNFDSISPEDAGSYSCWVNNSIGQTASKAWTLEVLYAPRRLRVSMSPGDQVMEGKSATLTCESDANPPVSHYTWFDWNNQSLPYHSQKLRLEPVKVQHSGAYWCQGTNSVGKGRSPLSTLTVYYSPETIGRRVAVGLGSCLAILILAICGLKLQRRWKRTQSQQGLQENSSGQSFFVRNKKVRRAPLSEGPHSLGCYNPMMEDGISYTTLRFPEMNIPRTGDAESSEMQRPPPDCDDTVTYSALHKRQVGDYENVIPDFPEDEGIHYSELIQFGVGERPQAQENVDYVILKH

[2] = target: T1, CD22 receptor on the Daudi cell line; assay: cell-based or functional assay; remark: listed apart in the source

B1: CAT-8015 (other)
VH: MEVQLVESGGGLVKPGGSLKLSCAASGFAFSIYDMSWVRQTPEKCLEWVAYISSGGGTTYYPDTVKGRFTISRDNAKNTLYLQMSSLKSEDTAMYYCARHSGYGTHWGVLFAYWGQGTLVTVSAKASGGPEGGSLAALTAHQACHLPLETFTRHRQPRGWEQLEQCGYPVQRLVALYLAARLSWNQVDQVIRNALASPGSGGDLGEAIREQPEQARLALTLAAAESERFVRQGTGNDEAGAANGPADSGDALLERNYPTGAEFLGDGGDVSFSTRGTQNWTVERLLQAHRQLEERGYVFVGYHGTFLEAAQSIVFGGVRARSQDLDAIWRGFYIAGDPALAYGYAQDQEPDARGRIRNGALLRVYVPRSSLPGFYRTSLTLAAPEAAGEVERLIGHPLPLRLDAITGPEEEGGRLETILGWPLAERTVVIPSAIPTDPRNVGGDLDPSSIPDKEQAISALPDYASQPGKPPREDLK
VL: MDIQMTQTTSSLSASLGDRVTISCRASQDISNYLNWYQQKPDGTVKLLIYYTSILHSGVPSRFSGSGSGTDYSLTISNLEQEDFATYFCQQGNTLPWTFGCGTKLEIK
modifications: Asn-358 partially deamidated to Asp-358 and iso-Asp-358 in the preparations tested (extent differs by pool)
[1]
  Relative Potency (%) in apoptosis bioassay (Caspase-Glo 3/7, Daudi cells; EC50 of Reference Standard / EC50 of test sample); sample: QHP Eluate Pool, bench scale (16.5% pre-peak): 80%
  Relative Potency (%) in apoptosis bioassay (Caspase-Glo 3/7, Daudi cells; EC50 of Reference Standard / EC50 of test sample); sample: QHP Load Pool, bench scale (53.8% pre-peak): 52%
[2]
  Relative Potency (%) in apoptosis bioassay (Caspase-Glo 3/7, Daudi cells; EC50 of Reference Standard / EC50 of test sample); sample: QHP Eluate Pool, large scale (17% pre-peak): 75%
  Relative Potency (%) in apoptosis bioassay (Caspase-Glo 3/7, Daudi cells; EC50 of Reference Standard / EC50 of test sample); sample: QHP Load Pool, large scale (50.3% pre-peak): 51%

From US20210395370A1 (AstraZeneca / MedImmune, published 2021)
